Legend:
[1] = substrate: C=CC(=O)SCCNC(=O)CCNC(=O)[C@H](O)C(C)(C)COP(=O)(O)OP(=O)(O)OC[C@H]1O[C@@H](n2cnc3c(N)ncnc32)[C@H](O)[C@@H]1OP(=O)(O)O; experiment: UHPLC of 3-hydroxypropionyl-CoA formed; format: biochemical, Metallosphaera sedula; details: 100 mM Tris-HCl pH 7.8, 65°C
Description: UHPLC of 3-hydroxypropionyl-CoA formed on Msed_0566

[2] = substrate: C=C(C)C(=O)SCCNC(=O)CCNC(=O)[C@H](O)C(C)(C)COP(=O)(O)OP(=O)(O)OC[C@H]1O[C@@H](n2cnc3c(N)ncnc32)[C@H](O)[C@@H]1OP(=O)(O)O; experiment: UHPLC of 3-hydroxy-2-methylpropionyl-CoA formed; format: biochemical, Metallosphaera sedula; details: 100 mM Tris-HCl pH 7.8, 65°C
Description: UHPLC of 3-hydroxy-2-methylpropionyl-CoA formed on Msed_0566

[3] = substrate: CCCCC/C=C/C(=O)SCCNC(=O)CCNC(=O)[C@H](O)C(C)(C)COP(=O)(O)OP(=O)(O)OC[C@H]1O[C@@H](n2cnc3c(N)ncnc32)[C@H](O)[C@@H]1OP(=O)(O)O; experiment: UHPLC of 3-hydroxyoctanoyl-CoA formed; format: biochemical, Metallosphaera sedula; details: 100 mM Tris-HCl pH 7.8, 65°C
Description: UHPLC of 3-hydroxyoctanoyl-CoA formed on Msed_0566

[4] = substrate: C/C=C/C(=O)SCCNC(=O)CCNC(=O)[C@H](O)C(C)(C)COP(=O)(O)OP(=O)(O)OC[C@H]1O[C@@H](n2cnc3c(N)ncnc32)[C@H](O)[C@@H]1OP(=O)(O)O; experiment: UHPLC of 3-hydroxybutyryl-CoA formed; format: biochemical, Metallosphaera sedula; details: 100 mM Tris-HCl pH 7.8, 65°C
Description: UHPLC of 3-hydroxybutyryl-CoA formed on Msed_0566

[5] = substrate: C/C=C/C(=O)SCCNC(=O)CCNC(=O)[C@H](O)C(C)(C)COP(=O)(O)OP(=O)(O)OC[C@H]1O[C@@H](n2cnc3c(N)ncnc32)[C@H](O)[C@@H]1OP(=O)(O)O; experiment: UHPLC of 3-hydroxybutyryl-CoA formed; format: biochemical, Nitrosopumilus maritimus; details: 100 mM Tris-HCl pH 7.8, 30°C
Description: UHPLC of 3-hydroxybutyryl-CoA formed on Nmar_1308

[6] = substrate: CCCCC/C=C/C(=O)SCCNC(=O)CCNC(=O)[C@H](O)C(C)(C)COP(=O)(O)OP(=O)(O)OC[C@H]1O[C@@H](n2cnc3c(N)ncnc32)[C@H](O)[C@@H]1OP(=O)(O)O; experiment: UHPLC of 3-hydroxyoctanoyl-CoA formed; format: biochemical, Nitrosopumilus maritimus; details: 100 mM Tris-HCl pH 7.8, 30°C
Description: UHPLC of 3-hydroxyoctanoyl-CoA formed on Nmar_1308

[7] = substrate: C=CC(=O)SCCNC(=O)CCNC(=O)[C@H](O)C(C)(C)COP(=O)(O)OP(=O)(O)OC[C@H]1O[C@@H](n2cnc3c(N)ncnc32)[C@H](O)[C@@H]1OP(=O)(O)O; experiment: UHPLC of 3-hydroxypropionyl-CoA formed; format: biochemical, Nitrosopumilus maritimus; details: 100 mM Tris-HCl pH 7.8, 30°C
Description: UHPLC of 3-hydroxypropionyl-CoA formed on Nmar_1308

[8] = substrate: CC(C)(COP(=O)(O)OP(=O)(O)OC[C@H]1O[C@@H](n2cnc3c(N)ncnc32)[C@H](O)[C@@H]1OP(=O)(O)O)[C@@H](O)C(=O)NCCC(=O)NCCSC(=O)CCO; experiment: dehydration coupled to Ccr, UHPLC; format: biochemical, Nitrosopumilus maritimus; details: 100 mM Tris-HCl pH 7.8, 30°C, 1 mM NADPH, 50 mM NaHCO3, Ccr
Description: (§1) dehydration coupled to Ccr, UHPLC on Nmar_1308

[9] = substrate: C[C@H](O)CC(=O)SCCNC(=O)CCNC(=O)[C@H](O)C(C)(C)COP(=O)(O)OP(=O)(O)OC[C@H]1O[C@@H](n2cnc3c(N)ncnc32)[C@H](O)[C@@H]1OP(=O)(O)O; experiment: dehydration coupled to Ccr, UHPLC; format: biochemical, Nitrosopumilus maritimus; details: 100 mM Tris-HCl pH 7.8, 30°C, 1 mM NADPH, 50 mM NaHCO3, Ccr
Description: as §1

[10] = substrate: C=CC(=O)SCCNC(=O)CCNC(=O)[C@H](O)C(C)(C)COP(=O)(O)OP(=O)(O)OC[C@H]1O[C@@H](n2cnc3c(N)ncnc32)[C@H](O)[C@@H]1OP(=O)(O)O; experiment: UHPLC of 3-hydroxypropionyl-CoA formed; format: biochemical, Metallosphaera sedula; details: 100 mM Tris-HCl pH 7.8, 65°C; remark: listed apart in the source
Description: UHPLC of 3-hydroxypropionyl-CoA formed on Msed_2001

[11] = substrate: CC(C)(COP(=O)(O)OP(=O)(O)OC[C@H]1O[C@@H](n2cnc3c(N)ncnc32)[C@H](O)[C@@H]1OP(=O)(O)O)[C@@H](O)C(=O)NCCC(=O)NCCSC(=O)CCO; experiment: dehydration coupled to Ccr, UHPLC; format: biochemical, Metallosphaera sedula; details: 100 mM Tris-HCl pH 7.8, 42°C, 1 mM NADPH, 50 mM NaHCO3, Ccr
Description: (§2) dehydration coupled to Ccr, UHPLC on Msed_2001

[12] = substrate: C[C@H](O)CC(=O)SCCNC(=O)CCNC(=O)[C@H](O)C(C)(C)COP(=O)(O)OP(=O)(O)OC[C@H]1O[C@@H](n2cnc3c(N)ncnc32)[C@H](O)[C@@H]1OP(=O)(O)O; experiment: dehydration coupled to Ccr, UHPLC; format: biochemical, Metallosphaera sedula; details: 100 mM Tris-HCl pH 7.8, 42°C, 1 mM NADPH, 50 mM NaHCO3, Ccr
Description: as §2

[13] = substrate: CCCCC/C=C/C(=O)SCCNC(=O)CCNC(=O)[C@H](O)C(C)(C)COP(=O)(O)OP(=O)(O)OC[C@H]1O[C@@H](n2cnc3c(N)ncnc32)[C@H](O)[C@@H]1OP(=O)(O)O; experiment: UHPLC of 3-hydroxyoctanoyl-CoA formed; format: biochemical, Metallosphaera sedula; details: 100 mM Tris-HCl pH 7.8, 65°C; remark: listed apart in the source
Description: UHPLC of 3-hydroxyoctanoyl-CoA formed on Msed_2001

[14] = substrate: C/C=C/C(=O)SCCNC(=O)CCNC(=O)[C@H](O)C(C)(C)COP(=O)(O)OP(=O)(O)OC[C@H]1O[C@@H](n2cnc3c(N)ncnc32)[C@H](O)[C@@H]1OP(=O)(O)O; experiment: UHPLC of 3-hydroxybutyryl-CoA formed; format: biochemical, Metallosphaera sedula; details: 100 mM Tris-HCl pH 7.8, 65°C; remark: listed apart in the source
Description: UHPLC of 3-hydroxybutyryl-CoA formed on Msed_2001

[15] = substrate: C=CC(=O)SCCNC(=O)CCNC(=O)[C@H](O)C(C)(C)COP(=O)(O)OP(=O)(O)OC[C@H]1O[C@@H](n2cnc3c(N)ncnc32)[C@H](O)[C@@H]1OP(=O)(O)O; experiment: UHPLC of 3-hydroxypropionyl-CoA formed; format: biochemical, Syntrophothermus lipocalidus; details: 100 mM Tris-HCl pH 7.8, 42°C
Description: UHPLC of 3-hydroxypropionyl-CoA formed on Slip_2089

[16] = substrate: CCCCC/C=C/C(=O)SCCNC(=O)CCNC(=O)[C@H](O)C(C)(C)COP(=O)(O)OP(=O)(O)OC[C@H]1O[C@@H](n2cnc3c(N)ncnc32)[C@H](O)[C@@H]1OP(=O)(O)O; experiment: UHPLC of 3-hydroxyoctanoyl-CoA formed; format: biochemical, Syntrophothermus lipocalidus; details: 100 mM Tris-HCl pH 7.8, 42°C
Description: UHPLC of 3-hydroxyoctanoyl-CoA formed on Slip_2089

[17] = substrate: C/C=C/C(=O)SCCNC(=O)CCNC(=O)[C@H](O)C(C)(C)COP(=O)(O)OP(=O)(O)OC[C@H]1O[C@@H](n2cnc3c(N)ncnc32)[C@H](O)[C@@H]1OP(=O)(O)O; experiment: UHPLC of 3-hydroxybutyryl-CoA formed; format: biochemical, Syntrophothermus lipocalidus; details: 100 mM Tris-HCl pH 7.8, 42°C
Description: UHPLC of 3-hydroxybutyryl-CoA formed on Slip_2089

[18] = substrate: CC(C)(COP(=O)(O)OP(=O)(O)OC[C@H]1O[C@@H](n2cnc3c(N)ncnc32)[C@H](O)[C@@H]1OP(=O)(O)O)[C@@H](O)C(=O)NCCC(=O)NCCSC(=O)CCO; experiment: dehydration coupled to Ccr, UHPLC; format: biochemical, Syntrophothermus lipocalidus; details: 100 mM Tris-HCl pH 7.8, 42°C, 1 mM NADPH, 50 mM NaHCO3, Ccr
Description: (§3) dehydration coupled to Ccr, UHPLC on Slip_2089

[19] = substrate: C[C@H](O)CC(=O)SCCNC(=O)CCNC(=O)[C@H](O)C(C)(C)COP(=O)(O)OP(=O)(O)OC[C@H]1O[C@@H](n2cnc3c(N)ncnc32)[C@H](O)[C@@H]1OP(=O)(O)O; experiment: dehydration coupled to Ccr, UHPLC; format: biochemical, Syntrophothermus lipocalidus; details: 100 mM Tris-HCl pH 7.8, 42°C, 1 mM NADPH, 50 mM NaHCO3, Ccr
Description: as §3

[20] = substrate: C=C(C)C(=O)SCCNC(=O)CCNC(=O)[C@H](O)C(C)(C)COP(=O)(O)OP(=O)(O)OC[C@H]1O[C@@H](n2cnc3c(N)ncnc32)[C@H](O)[C@@H]1OP(=O)(O)O; experiment: UHPLC of 3-hydroxy-2-methylpropionyl-CoA formed; format: biochemical, Syntrophothermus lipocalidus; details: 100 mM Tris-HCl pH 7.8, 42°C
Description: UHPLC of 3-hydroxy-2-methylpropionyl-CoA formed on Slip_2089

B1: Msed_0566 (Metallosphaera sedula DSM 5348) (protein)
chain: MDVILEKRKGYLLLTFNTGGRYNVFTTRFMIEMIDTLSEVEKIRDPHYLVIKGENGNFGAGADVKELLKANGDKEYAKVYFGHMKDLFVKMLSLNKVTIGLIEGVAYGASMELLLALDIVIAKRGTKFAAPGGKLGVFPPVLVSIGPYLLGHRTSRKLAMLGEELDTQGAINAGLIDYEVDDLEKGLLELLNRLKVMSPSAQVRMRKLILQSLIPHLEKAFDELATQVTSDEAREGISSFFSKTSPSWSSVGFS
notes: pET16b, His10-tagged, expressed in E. coli Rosetta 2 (DE3), Ni-NTA purified
[1]
  Km: 37 ± 2 µM
  kcat/Km: 39000 M⁻¹ s⁻¹
[2]
  Km: 140 ± 30 µM
  kcat/Km: 2000 M⁻¹ s⁻¹
[3]
  Km: 180 ± 60 µM
  kcat/Km: 16000 M⁻¹ s⁻¹
[4]
  Km: 80 ± 30 µM
  kcat/Km: 19000 M⁻¹ s⁻¹

B2: Nmar_1308 (Nitrosopumilus maritimus SCM1) (protein)
chain: MSLVTTSTSDGICTVKINRPDKLNAMNTDVAKELIKTFEELNHNDDVKVIILTGEGEKAFSAGADIEYMSKISADESVEYAKTGQLVTATVELVKQPTIAAVNGFALGGGCELAMSCDIRIAADTAKLGQPEVTIGVPPGWGGTQRLMRIVGIAKAKELVYTGKMIKAEEAKEIGLVNHVVPLASLQEEALKMAQQIAGNSTMGVQMSKVAINKGRNADLDTGLGLEILAWRNCFTHPDRQERMTAFVNKSKK
notes: as for B1
[5]
  Km: 450 ± 30 µM
  Vmax: 3790 ± 111 µmol/min/mg
  kcat/Km: 4.25e+06 M⁻¹ s⁻¹
[6]
  Km: 120 ± 20 µM
  Vmax: 47 µmol/min/mg
  kcat/Km: 198000 M⁻¹ s⁻¹
[7]
  Km: 710 ± 70 µM
  Vmax: 11400 ± 392 µmol/min/mg
  kcat/Km: 8.09e+06 M⁻¹ s⁻¹
[8]
  Km: 170 ± 30 µM
  Vmax: 38 µmol/min/mg
  kcat/Km: 113000 M⁻¹ s⁻¹
[9]
  Km: 360 ± 60 µM
  Vmax: 1520 ± 92 µmol/min/mg
  kcat/Km: 2.12e+06 M⁻¹ s⁻¹

B3: Msed_2001 (Metallosphaera sedula DSM 5348) (protein)
chain: MEFETIETKKEGNLFWITLNRPDKLNALNAKLLEELDRAVSQAESDPEIRVIIITGKGKAFCAGADITQFNQLTPAEAWKFSKKGREIMDKIEALSKPTIAMINGYALGGGLELALACDIRIAAEEAQLGLPEINLGIYPGYGGTQRLTRVIGKGRALEMMMTGDRIPGKDAEKYGLVNRVVPLANLEQETRKLAEKIAKKSPISLALIKEVVNRGLDSPLLSGLALESVGWGVVFSTEDKKEGVSAFLEKREPTFKGK
notes: pET16b, N-terminal His10-tag, expressed in E. coli Rosetta 2 (DE3), heat precipitation and Ni-NTA purified
[10]
  Km: 140 ± 10 µM
  kcat/Km: 9.94e+07 M⁻¹ s⁻¹
[11]
  Km: 160 ± 20 µM
  kcat/Km: 3.26e+06 M⁻¹ s⁻¹
[12]
  Km: 34 ± 4 µM
  kcat/Km: 4.38e+07 M⁻¹ s⁻¹
[13]
  Km: 48 ± 5 µM
  kcat/Km: 3.94e+07 M⁻¹ s⁻¹
[14]
  Km: 80 ± 10 µM
  kcat/Km: 3.16e+07 M⁻¹ s⁻¹

B4: Slip_2089 (Syntrophothermus lipocalidus DSM 12680) (protein)
chain: MEDKQKSVKCSIDDQGIAIVTINRPHALNALNREVFTELGKVFDELRDNPRARVVVLTGEGQKAFAAGSDITEMKECSVLEAREFAMLANRTQGKIETFPKPVIAAVNGFALGGGCEVAMACDIRIASSNAKFGQPEINLGIIPGGGGTQRLARLVGLGRAKELVYSGGIIDAQRAYEIGLVNKVVPAEALMSEALGLAAKIASKSMPVLMLAKVAFNHGFSMDLDKALQFEIECFAECFGTDDHTEGMSAFIERREPAFKDK
notes: as for B1
[15]
  Km: 400 ± 50 µM
  kcat/Km: 138000 M⁻¹ s⁻¹
[16]
  Km: 210 ± 40 µM
  kcat/Km: 562000 M⁻¹ s⁻¹
[17]
  Km: 160 ± 20 µM
  kcat/Km: 143000 M⁻¹ s⁻¹
[18]
  Km: 350 ± 60 µM
  kcat/Km: 2000 M⁻¹ s⁻¹
[19]
  Km: 1310 ± 310 µM
  kcat/Km: 41000 M⁻¹ s⁻¹
[20]
  Km: 1010 ± 220 µM
  kcat/Km: 500 M⁻¹ s⁻¹

From PMC7845616, “Convergent Evolution of a Promiscuous 3-Hydroxypropionyl-CoA Dehydratase/Crotonyl-CoA Hydratase in Crenarchaeota and Thaumarchaeota” (mSphere, 2021)
